Like-named read-outs stand apart in the source and are kept apart here. Each block holds one binder with its values, some of them ahead of it.
Legend:
[1] = target: T1, human TIMP-1 (human, UniProt P01033 24-207); assay: SPR (BIAcore); against the parental Fab (MS-BW-3, 13 nM; not given)
T1 construct: Purified protein, coupled to the BIAcore chip or in solution in the protease assay
Procedure: (§1) For affinity determination, monomeric fractions of affinity and SEC purified Fab fragments or purified IgG1 molecules were used. All experiments were conducted in HBS buffer at a flow rate of 20 μl/min at 25° C. on a BIAcore™ instrument. Antigens in 100 mM sodium acetate pH 5.0 were coupled to a CM 5 sensor chip using standard EDC-NHS coupling chemistry. […] All sensograms were fitted globally using BIA evaluation software. For monovalent Fab fragments a monovalent fit (Langmuir binding) and for IgGs a bivalent fit was applied.

[2] = target: T1, human TIMP-1; assay: cell-based or functional assay
[3] = target: T1, human TIMP-1; assay: SPR (BIAcore), TIMP-1 coupled to chip, monovalent Fab
Procedure: as §1

[4] = target: T1, human TIMP-1; assay: as above; remark: listed apart in the source
Procedure: as §1

[5] = target: T1, human TIMP-1; assay: as above; remark: listed apart in the source
Procedure: as §1

[6] = target: T1, human TIMP-1; assay: cell-based or functional assay; remark: listed apart in the source
[7] = target: T1, human TIMP-1; assay: cell-based or functional assay; remark: listed apart in the source
[8] = target: T1, human TIMP-1; assay: cell-based or functional assay; remark: listed apart in the source
[9] = target: T1, human TIMP-1; assay: SPR (BIAcore), monovalent Fab; against parental clone MS-BW-3 (best Fab and parent named in paragraph 170)
[10] = target: T1, human TIMP-1; assay: SPR (BIAcore); against the parental Fab (MS-BW-44-6, 0.6 nM; implied)
Procedure: as §1

[11] = target: T1, human TIMP-1; assay: SPR (BIAcore), monovalent Fab
Procedure: as §1

[12] = target: T1, human TIMP-1; assay: SPR (BIAcore); against the parental Fab (MS-BW-44-2, 0.5 nM; implied)
Procedure: as §1

[13] = target: T2, rat TIMP-1 (rat, UniProt P30120 24-217); assay: cell-based or functional assay
[14] = target: T2, rat TIMP-1; assay: SPR (BIAcore), rat TIMP-1 on chip (500 RU), IgG1, bivalent fit (avidity)
Procedure: as §1
Anti-rat TIMP-1 clone MS-BW-14 was chosen for the first in vivo study, and IgG₁ protein was produced by transient expression. Anti-human TIMP-1 clone MS-BW-3 was selected as a negative control IgG₁ and was also produced by transient expression. Purified IgG₁ proteins MS-BW-14 and MS-BW-3 were subjected to quality control in BIAcore™ and rat TIMP-1/rat MMP-13 assays. […] This increase in affinity for the IgG₁ is due to the avidity effects caused by binding of bivalent IgG₁ to immobilized rat TIMP-1 protein on the BIAcore™ chip.

[15] = target: T2, rat TIMP-1; assay: cell-based or functional assay; remark: listed apart in the source
[16] = target: T2, rat TIMP-1; assay: SPR (BIAcore), rat TIMP-1 on chip, IgG1, bivalent (avidity)
Procedure: as §1
Affinity matured clone MS-BW-17-1 was then converted from a monovalent Fab fragment to a bivalent IgG₁. Protein was produced by stable transfection. Purified protein was subjected to quality control in BIAcore™ and rat TIMP-1/rat MMP-13 assays (FIG. 13).

[17] = target: T1, human TIMP-1; assay: SPR (BIAcore), human TIMP-1 on chip, IgG1, bivalent fit (avidity)
Procedure: as §1

T2 sequence (P30120 24-217 limits assumed): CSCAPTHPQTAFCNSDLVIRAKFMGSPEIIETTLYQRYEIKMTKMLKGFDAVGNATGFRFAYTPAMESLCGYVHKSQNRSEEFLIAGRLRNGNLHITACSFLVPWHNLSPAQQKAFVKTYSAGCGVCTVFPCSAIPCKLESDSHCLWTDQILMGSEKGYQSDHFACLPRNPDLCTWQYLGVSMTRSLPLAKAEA

B1: MS-BW-44 (Fab, V domains shown)
VH: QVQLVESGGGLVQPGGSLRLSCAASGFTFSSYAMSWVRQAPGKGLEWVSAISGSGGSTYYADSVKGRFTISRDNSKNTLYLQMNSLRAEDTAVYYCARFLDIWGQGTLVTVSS
VL: DIALTQPASVSGSPGQSITISCTGTSSDVGGYNYVSWYQQHPGKAPKLMIYDVSNRPSGVSNRFSGSKSGNTASLTISGLQAEDEADYYCQSYDFVRFMVFGGGTKLTVLG
notes: Fab: heavy chain of MS-BW-3 with light chain of MS-BW-26; not tied by name
improvement factor (Kd) [1]: 6.5 fold
IC50 in human protease assay [2]: 4 nM
IC50 in human protease assay (modified, decreased amounts of TIMP-1 and MMP-1) [2]: 2 nM
Kd [3]: 2 nM
Kd [4]: 2 nM
Kd [5]: 2 nM
IC50 in human protease assay (modified, 0.4 nM TIMP-1 and MMP-1) [6]: 2 nM
IC50 in human protease assay [7]: 4 nM

B4: MS-BW-14 IgG1 (antibody, V domains shown)
VH: QVQLVQSGAEVKKPGSSVKVSCKASGGTFSSYAISWVRQAPGQGLEWMGGIIPIFGTANYAQKFQGRVTITADESTSTAYMELSSLRSEDTAVYYCARWSDQSYHYYWHPYFDVWGQGTLVTVSS
VL: DIVLTQPPSVSGAPGQRVTISCSGSSSNIGSNYVSWYQQLPGTAPKLLIYDNNQRPSGVPDRFSGSKSGTSASLAITGLQSEDEADYYCQSWDLEPYVFGGGTKLTVL
notes: Variable regions of Fab MS-BW-14 cloned into human IgG1 vectors; also called IgG1 protein MS-BW-14; copies: 2 + 2
IC50 (50 % reversal of the inhibition of rat MMP-13 by rat TIMP-1, fluorogenic peptide substrate assay) [13]: ~7 nM
Kd [14]: 0.2 nM

B6: MS-BW-3 IgG1 (antibody, V domains shown)
VH: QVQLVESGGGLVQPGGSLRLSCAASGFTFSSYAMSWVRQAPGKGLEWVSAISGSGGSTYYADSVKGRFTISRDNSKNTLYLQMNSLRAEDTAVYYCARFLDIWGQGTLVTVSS
VL: DIALTQPASVSGSPGQSITISCTGTSSDVGGYNYVSWYQQHPGKAPKLMIYDVSNRPSGVSNRFSGSKSGNTASLTISGLQAEDEADYYCQSYDFLRFSVFGGGTKLTVL
notes: Variable regions of Fab MS-BW-3 cloned into human IgG1 vectors; also called negative control IgG1 MS-BW-3; control antibody; copies: 2 + 2
Kd [17]: ~0.4 nM

Now from value to binder:

improvement factor of activity in human TIMP-1/MMP-1 assay (against parental clone MS-BW-3) [8]: 55 fold
improvement factor of monovalent affinity [9]: 87 fold
improvement factor (affinity) [10]: 4 fold
IC50 in human protease assay (modified, decreased TIMP-1 and MMP-1) [2]: 0.2 nM
Kd [5]: 0.2 nM
Kd [11]: 0.15 nM
B2: MS-BW-44-6-1 (Fab, V domains shown)
VH: QVQLVESGGGLVQPGGSLRLSCAASGFTFNSYAMSWVRQAPGKGLEWVSVISGNGSNTYYADSVKGRFTISRDNSKNTLYLQMNSLRAEDTAVYYCARFLDIWGQGTLVTVSS
VL: DIALTQPASVSGSPGQSITISCTGTSSDVGGYNYVSWYQQHPGKAPKLMIYDVSNRPSGVSNRFSGSKSGNTASLTISGLQAEDEADYYCQSYDFIRFMVFGGGTKLTVLG
notes: Fab from LCDR3 optimization of MS-BW-44-6

improvement factor with respect to the IC50 in human TIMP-1/MMP-1 assay (against the Fab of the previous maturation cycle, MS-BW-44-2) [8]: 2 fold
IC50 in human protease assay (modified, decreased TIMP-1 and MMP-1) [2]: 0.2 nM
improvement factor (affinity) [12]: 2.5 fold
Kd [5]: 0.2 nM
B3: MS-BW-44-2-4 (Fab, V domains shown)
VH: QVQLVESGGGLVQPGGSLRLSCAASGFTFSSYAMSWVRQAPGKGLEWVSGISGNGVLIFYADSVKGRFTISRDNSKNTLYLQMNSLRAEDTAVYYCARGLMDYWGQGTLVTVSS
VL: DIALTQPASVSGSPGQSITISCTGTSSDVGGYNYVSWYQQHPGKAPKLMIYDVSNRPSGVSNRFSGSKSGNTASLTISGLQAEDEADYYCQSYDFVRFMVFGGGTKLTVLG
notes: Fab from HCDR3 optimization of MS-BW-44-2

IC50 (50 % reversal of the inhibition of rat MMP-13 by rat TIMP-1, fluorogenic peptide substrate assay) [15]: ~0.9 nM
Kd [16]: 0.04 nM
B5: MS-BW-17-1 IgG1 (antibody, V domains shown)
VH: QVQLVQSGAEVKKPGESLKISCKGSGYSFTSYWIGWVRQMPGKGLEWMGIIYPGDSDTRYSPSFQGQVTISADKSISTAYLQWSSLKASDTAMYYCARLTNYFDSIYYDHWGQGTLVTVSS
VL: DIALTQPASVSGSPGQSITISCTGTSSDVGGYNYVSWYQQHPGKAPKLMIYDVSNRPSGVSNRFSGSKSGNTASLTISGLQAEDEADYYCQAFDVAPNGKVFGGGTKLTVL
notes: Fab MS-BW-17-1 converted to bivalent human IgG1
